From US8748182B2, “Mutant proteins and methods for producing them” (Heptares Therapeutics Limited, priority 2007, dated 2014)
Substitutions are numbered along the chain they refer to. Names may count otherwise.

B1: S362A: NTR point mutant (protein, UniProt P20789 1-424, looked up, variant S362A)
Neurotensin receptor type 1: MHLNSSVPQGTPGEPDAQPFSGPQSEMEATFLALSLSNGSGNTSESDTAGPNSDLDVNTDIYSKVLVTAIYLALFVVGTVGNSVTAFTLARKKSLQSLQSTVHYHLGSLALSDLLILLLAMPVELYNFIWVHHPWAFGDAGCRGYYFLRDACTYATALNVASLSVERYLAICHPFKAKTLMSRSRTKKFISAIWLASALLAIPMLFTMGLQNRSGDGTHPGGLVCTPIVDTATVKVVIQVNTFMSFLFPMLVISILNTVIANKLTVMVHQAAEQGRVCTVGTHNGLEHSTFNMTIEPGRVQALRHGVLVLRAVVIAFVVCWLPYHVRRLMFCYISDEQWTTFLFDFYHYFYMLTNALFYVSAAINPILYNLVSANFRQVFLSTLACLCPGWRHRRKKRPTFSRKPNSMSSNHAFSTSATRETLY
B2: H103A: NTR point mutant (protein, UniProt P20789 1-424, looked up, variant H103A)
Neurotensin receptor type 1: B1 Neurotensin receptor type 1 with H103A, A362S
B3: A90L: NTR point mutant (protein, UniProt P20789 1-424, looked up, variant A90L)
Neurotensin receptor type 1: B1 Neurotensin receptor type 1 with A90L, A362S
B4: A86L: NTR point mutant (protein, UniProt P20789 1-424, looked up, variant A86L)
Neurotensin receptor type 1: B1 Neurotensin receptor type 1 with A86L, A362S
B5: A385L: NTR point mutant (protein, UniProt P20789 1-424, looked up, variant A385L)
Neurotensin receptor type 1: B1 Neurotensin receptor type 1 with A362S, A385L
B6: V268A: NTR point mutant (protein, UniProt P20789 1-424, looked up, variant V268A)
Neurotensin receptor type 1: B1 Neurotensin receptor type 1 with V268A, A362S
B7: T207A: NTR point mutant (protein, UniProt P20789 1-424, looked up, variant T207A)
Neurotensin receptor type 1: B1 Neurotensin receptor type 1 with T207A, A362S
B8: A155L: NTR point mutant (protein, UniProt P20789 1-424, looked up, variant A155L)
Neurotensin receptor type 1: B1 Neurotensin receptor type 1 with A155L, A362S
B9: F189A: NTR point mutant (protein, UniProt P20789 1-424, looked up, variant F189A)
Neurotensin receptor type 1: B1 Neurotensin receptor type 1 with F189A, A362S
B10: N262A: NTR point mutant (protein, UniProt P20789 1-424, looked up, variant N262A)
Neurotensin receptor type 1: B1 Neurotensin receptor type 1 with N262A, A362S
B11: L109A: NTR point mutant (protein, UniProt P20789 1-424, looked up, variant L109A)
Neurotensin receptor type 1: B1 Neurotensin receptor type 1 with L109A, A362S
B12: W391A: NTR point mutant (protein, UniProt P20789 1-424, looked up, variant W391A)
Neurotensin receptor type 1: B1 Neurotensin receptor type 1 with A362S, W391A
B13: T179A: NTR point mutant (protein, UniProt P20789 1-424, looked up, variant T179A)
Neurotensin receptor type 1: B1 Neurotensin receptor type 1 with T179A, A362S
B14: S182A: NTR point mutant (protein, UniProt P20789 1-424, looked up, variant S182A)
Neurotensin receptor type 1: B1 Neurotensin receptor type 1 with S182A, A362S
B15: M293A: NTR point mutant (protein, UniProt P20789 1-424, looked up, variant M293A)
Neurotensin receptor type 1: B1 Neurotensin receptor type 1 with M293A, A362S
B16: L256A: NTR point mutant (protein, UniProt P20789 1-424, looked up, variant L256A)
Neurotensin receptor type 1: B1 Neurotensin receptor type 1 with L256A, A362S
B17: F147A: NTR point mutant (protein, UniProt P20789 1-424, looked up, variant F147A)
Neurotensin receptor type 1: B1 Neurotensin receptor type 1 with F147A, A362S
B18: D139A: NTR point mutant (protein, UniProt P20789 1-424, looked up, variant D139A)
Neurotensin receptor type 1: B1 Neurotensin receptor type 1 with D139A, A362S
B19: S100A: NTR point mutant (protein, UniProt P20789 1-424, looked up, variant S100A)
Neurotensin receptor type 1: B1 Neurotensin receptor type 1 with S100A, A362S
B20: K176A: NTR point mutant (protein, UniProt P20789 1-424, looked up, variant K176A)
Neurotensin receptor type 1: B1 Neurotensin receptor type 1 with K176A, A362S
B21: L111A: NTR point mutant (protein, UniProt P20789 1-424, looked up, variant L111A)
Neurotensin receptor type 1: B1 Neurotensin receptor type 1 with L111A, A362S
B22: D345A: NTR point mutant (protein, UniProt P20789 1-424, looked up, variant D345A)
Neurotensin receptor type 1: B1 Neurotensin receptor type 1 with D345A, A362S
B23: Y349A: NTR point mutant (protein, UniProt P20789 1-424, looked up, variant Y349A)
Neurotensin receptor type 1: B1 Neurotensin receptor type 1 with Y349A, A362S
B24: C386A: NTR point mutant (protein, UniProt P20789 1-424, looked up, variant C386A)
Neurotensin receptor type 1: B1 Neurotensin receptor type 1 with A362S, C386A

Assay: Thermostability of neurotensin receptor (NTR) mutants (3H-neurotensin binding)
Type: physicochemical
Conditions: Ligand(+) format
Procedure: FIG. 12 Flow chart showing the two different assay formats of ligand (+) and ligand (−) used to determine receptor thermostablity.
3. Mutants tested for thermostability by heating in the absence of the agonist were re-tested using a slightly different assay where the mutants were heated in the presence of ^3H-neurotensin (Ligand(+) format in FIG. 12). […] All of these also have increased thermostability. • 5. Preferred combinations are • a. Nag7m F358A+A86L+1260A+F342A Tm 51° C. (neurotensin bound) • b. Nag7n F358A+H103A+1260A+F342A Tm 51° C. (neurotensin bound) • Wildtype NTR has a Tm of 35° C. with neurotensin bound.

Q: For B1, which “thermostability, heated in the presence of 3H-neurotensin” value (“thermostability, heated in the presence” for short) is on record?
A: Its value is “improved thermostability”.

Q: For B2, which “thermostability, heated in the presence” value is on record?
A: The value was “improved thermostability”.

Q: Which “thermostability, heated in the presence” value does the source give for B3 here?
A: The value was “improved thermostability”.

Q: For B4, which “thermostability, heated in the presence” value is on record?
A: Its value is “improved thermostability”.

Q: Which “thermostability, heated in the presence” value does the source give for B5 here?
A: The value was “improved thermostability”.

Same assay, conditions: heated in the absence of the agonist

Q: For B6, which “thermostability, 3H-neurotensin (agonist) binding after the heating step” value (from here on “thermostability, 3H-neurotensin”) is on record?
A: Its value is “small but significant increase in thermostability”.

Q: For B7, which “thermostability, 3H-neurotensin” value is on record?
A: Its value is “small but significant increase in thermostability”.

Q: For B8, which “thermostability, 3H-neurotensin” value is on record?
A: Its value is “small but significant increase in thermostability”.

Q: For B1, which “thermostability, 3H-neurotensin” value is on record?
A: Its value is “small but significant increase in thermostability”.

Q: With B9 as the molecule, how does the “thermostability, 3H-neurotensin” value read?
A: Its value is “small but significant increase in thermostability”.

Q: With B10 as the molecule, how does the “thermostability, 3H-neurotensin” value read?
A: The value was “small but significant increase in thermostability”.

Q: For B11, which “thermostability, 3H-neurotensin” value is on record?
A: The value was “small but significant increase in thermostability”.

Q: Which “thermostability, 3H-neurotensin” value does the source give for B12 here?
A: The value was “small but significant increase in thermostability”.

Q: With B2 as the molecule, how does the “thermostability, 3H-neurotensin” value read?
A: The value was “small but significant increase in thermostability”.

Q: Which “thermostability, 3H-neurotensin” value does the source give for B13 here?
A: The value was “small but significant increase in thermostability”.

Q: With B14 as the molecule, how does the “thermostability, 3H-neurotensin” value read?
A: Its value is “small but significant increase in thermostability”.

Q: Which “thermostability, 3H-neurotensin” value does the source give for B15 here?
A: Its value is “small but significant increase in thermostability”.

Q: With B16 as the molecule, how does the “thermostability, 3H-neurotensin” value read?
A: Its value is “small but significant increase in thermostability”.

Q: With B17 as the molecule, how does the “thermostability, 3H-neurotensin” value read?
A: Its value is “small but significant increase in thermostability”.

Q: For B18, which “thermostability, 3H-neurotensin” value is on record?
A: The value was “small but significant increase in thermostability”.

Q: With B19 as the molecule, how does the “thermostability, 3H-neurotensin” value read?
A: Its value is “small but significant increase in thermostability”.

Q: Which “thermostability, 3H-neurotensin” value does the source give for B20 here?
A: The value was “small but significant increase in thermostability”.

Q: Which “thermostability, 3H-neurotensin” value does the source give for B21 here?
A: The value was “small but significant increase in thermostability”.

Q: For B3, which “thermostability, 3H-neurotensin” value is on record?
A: Its value is “small but significant increase in thermostability”.

Q: Which “thermostability, 3H-neurotensin” value does the source give for B22 here?
A: Its value is “small but significant increase in thermostability”.

Q: With B4 as the molecule, how does the “thermostability, 3H-neurotensin” value read?
A: Its value is “small but significant increase in thermostability”.

Q: With B5 as the molecule, how does the “thermostability, 3H-neurotensin” value read?
A: The value was “small but significant increase in thermostability”.

Q: With B23 as the molecule, how does the “thermostability, 3H-neurotensin” value read?
A: Its value is “small but significant increase in thermostability”.

Q: With B24 as the molecule, how does the “thermostability, 3H-neurotensin” value read?
A: Its value is “small but significant increase in thermostability”.
